No end group written: not given here. *: point of attachment. 5FAM = O=C1OC2(c3ccc(O)cc3Oc3cc(O)ccc32)c2ccc(C(=O)*)cc21
B2: 5′FAM-IKKβ_(KK/RR) (peptide, UniProt O14920 701-745, looked up)
chain: 5FAM-PARRSEELVAEAHNLCTLLENAIQDTVREQDQSFTALDWSWLQTE
modifications: not fully specified
B3: NEMOw (domain or fragment)
chain: GSWEQGAPETLQRCLEENQELRDAIRQSNQILRERCEELLHFQASQREEKEFLMCKFQEARKLVERLGLEKL

Key:
5′FAM-IKKβ_(KK/RR) [1] = molecular target: 5′FAM-IKKβ_(KK/RR) (UniProt O14920); assay: fluorescence polarisation
NEMOwNcc = NEMOwNcc (UniProt Q9Y6K9); assay: non-reducing SDS-PAGE
NEMOwCcc = NEMOwCcc (UniProt Q9Y6K9); assay: non-reducing SDS-PAGE
5′FAM-IKKβ_(KK/RR) [2] = molecular target: B2; assay: fluorescence polarisation
NEMOw = molecular target: B3; assay: fluorescence polarisation
GST-NEMO(1–196) [3] = molecular target: T1, GST-NEMO(1–196) (UniProt Q9Y6K9 1-196); assay: fluorescence polarisation
non-reducing SDS-PAGE = molecular target: the molecule itself; assay: non-reducing SDS-PAGE
GST-NEMO(1–196) [4] = molecular target: T1, GST-NEMO(1–196); assay: fluorescence polarisation; remark: listed apart in the source

Molecule: NEMOwNcc (from UniProt Q9Y6K9 51-112) (designed binder)
- Kd (5′FAM-IKKβ_(KK/RR) [1]): 980 nM
- stoichiometry N (NEMOwNcc): 2

Molecule: NEMOwCcc (from UniProt Q9Y6K9 44-112) (designed binder)
- Kd (5′FAM-IKKβ_(KK/RR) [1]): 150 nM
- stoichiometry N (NEMOwCcc): 2

B1: NEMOwDcc (designed binder)
chain: GSWSVKELEDKNEELLSEIAHLKNEVARLKKLLQRCLEENQELRDAIRQSNQILRERCEELLHFQASQREEKEFLMCKFQEARKLVERLGLEKLELEDKNEELLSEIAHLKNEVARLKKLVGER
- Kd (5′FAM-IKKβ_(KK/RR) [2]): 114 ± 3 nM

Molecule: B2
- Kd (NEMOw): ~10 µM
- Kd (GST-NEMO(1–196) [3]): 168 ± 4 nM

Molecule: B3
- stoichiometry N (non-reducing SDS-PAGE): 2

Molecule: PARRSEELVAEAHNLCTLLENAIQDTVREQDQSFTALDWSWLQTE (peptide, UniProt O14920 701-745, looked up) [IKKβ_(KK/RR)]
- IC50 (GST-NEMO(1–196) [4]): 167 ± 3 nM
